# A protein production outcome set (Wang et al. 2014)
# Test: label from the status in PepcDB records
row,Sequence,protein production
1,MSEKKAVIGVVTISDRASKGIYEDISGKAIIDYLKDVIITPFEVEYRVIPDERDLIEKTLIELADEKGCSLILTTGGTGPAPRDVTPEATEAVCEKMLPGFGELMRQVSLKQVPTAILSRQTAGIRGSCLIVNLPGKPQSIKVCLDAVMPAIPYCIDLIGGAYIDTDPNKVKAFRPKK,not failed
2,MGDEDLIELKFRLADGTDIGPSKYSQFMTVASLKEKIIAQWPKDKENAPKMINEVKLINGGKILENNKTLSEARSLITIGELPGIVTTMHVVLRPPLFEKKKEKLQNDPPRKSHCVCCIL,failed
3,MSSFSLAVRDSSTMLRRNLLHARRYPSLTLNLLLTPVMLLLLFVYIFGDTMSGGAGRSAYIAYIVPGILLMTIGSTTIGTAVSVSTDMNEGIIARFRTMAIHRSSVLFGHVAGSVLQAIMSVVLVGAVGVAMGFRSTDATVLEWLAAFGLLALFALAFTWIAVGMGLGSPNAEAASNNAMPLILLPLISSAFVPLDSMPGWFQPIAEYQPFTPAIETLRGLLLGTEIGNNWWIALAWCLGLTVLGHRWSKAQFNRDPK,failed
4,MKTITTFENKKVLVLGLARSGEAAARLLAKLGAIVTVNDGKPFDENPTAQSLLEEGIKVVCGSHPLELLDEDFCYMIKNPGIPYNNPMVKKALEKQIPVLTEVELAYLVSESQLIGITGSNGKTTTTTMIAEVLNAGGQRGLLAGNIGFPASEVVQAANDKDTLVMELSSFQLMGVKEFRPHIAVITNLMPTHLDYHGSFEDYVAAKWNIQNQMSSSDFLVLNFNQGISKELAKTTKATIVPFSTTEKVDGAYVQDKQLFYKGENIMSVDDIGVPGSHNVENALATIAVAKLAGISNQVIRETLSNFGGVKHRLQSLGKVHGISFYNDSKSTNILATQKALSGFDNTKVILIAGGLDRGNEFDELIPDITGLKHMVVLGESASRVKRAAQKAGVTYSDALDVRDAVHKAYEVAQQGDVILLSPANASWDMYKNFEVRGDEFIDTFESLRGE,not failed
5,MPTTDLRKAQLQIHFCVLLWGITAILGKLITLQALPLVWWRMLIVVVALALWPRVWRGLRGLSGRVVLGYCGIGALVALHWLTFYGAIKLANASVAATCIALAPVFTAVIEPLVTHRPFRPRELLFGLAVLPGVALVVGGVPDGMRAGVVVGAISAVFVGLFGSLNKRMVAHADPLTVTALELGAGTLTLTLLAPAMPLLLPALHGDLLVVPSLHDGVLLLALSLACTLLPFALALVALRHLSAYSVQLVTNLEPVYAIVLAIALLGEQRELTLQFYLGVAIILGAVFLHPVLERRRTVAHPELLGTAEAKNIVD,failed
6,MRKVLFTVALLLTACFVSAQVSVVKEAKSLKSKPEEAAKAIEPALTNPETANDPETWKLAGDFQKAIYDEENMKLYLPGGQADTTKLYNSLAKMYDFYLKCDEIEQAKVQSGELKKPKFRKKNADALKTLRLNLVNGGGDAYNKGDYADALKYFGLFVDVVNEPMFADDDELKADTLNALYACYATLAANMLKDNQAVIKYGNIGKNHKEEGYRALMCLAETYGQKEGGDSAKWLEVIKEGTESFPKQEYFVGNIMDYYIQKGMVDEGLAQINKLLATSETPYYLYVKGILLYEKKQYDDAVAIFNKIISNNGDLVAEAYSKIGDCYFFPAQIIVEENAKLAIDDPKYNENENKIKELYEKAKPYYEKAKELKPDNKALWGNYLLNIYWKLNRAEYDSLEKELGY,failed
7,MSRGDKMLKFEIKARDGAGRIGKLEVNGKKIETPAIMPVVNPKQMVVEPKELEKMGFEIIITNSYIIYKDEELRRKALELGIHRMLDYNGIIEVDSGSFQLMKYGSIEVSNREIIEFQHRIGVDIGTFLDIPTPPDAPREQAVKELEITLSRAREAEEIKEIPMNATIQGSTYTDLRRYAARRLSSMNFEIHPIGGVVPLLESYRFRDVVDIVISSKMALRPDRPVHLFGAGHPIVFALAVAMGVDLFDSASYALYAKDDRYMTPEGTKRLDELDYFPCSCPVCSKYTPQELREMPKEERTRLLALHNLWVIKEEIKRVKQAIKEGELWRLVDERARSHPKLYSAYKRLLEHYTFLEEFEPITKKSALFKISNESLRWPVVRRAKERAKSINERFGELVEHPIFGRVSRYLSLTYPFAQSEAEDDFKIEKPTKEDAIKYVMAIAEYQFGEGASRAFDDAKVELSKTGMPRQVKVNGKRLATVRADDGLLTLGIEGAKRLHRVLPYPRMRVVVNKEAEPFARKGKDVFAKFVIFADPGIRPYDEVLVVNENDELLATGQALLSGREMIVFQYGRAVKVRKGVE,not failed
8,MSNSINLGRVAVIDIGKTNAKVVVIDTGSGEEIAAEKRTNPVLRDGPYPHYDVEMLWNFILAALQRFGHEPGFDAISITTHGASAALLDGTGDLAMPVLDYEHIYAEPVQQAYRGIRPDFAETGSPQLPAGLNLGAQIHFQKTNFPDDFARVRSIVTYPQYWAGRLTGVQATETTSLGCHTDLWNPRRKSFSSLVGRLGIEHLMAPVRSAFDVLGTIRPSLAQETGLSPDMPVYCGIHDSNASLLPHLLRREGDFSVVSTGTWVVNFAIGGKADALDPARDTLLNVDALGRPVPSSRFMGGREYEMLAQQFGAATPHDIEAALGGVIEKGMMLLPSVVSGSGPFPQSASRWIADSDATGAERHAAASLYLALMTEFCLSLVERRGPIVVEGPFAGNALYLKALAAFAATDVIAMEGSTGTSAGAALLTGIKPVAGRERHFTAEDIAGLTSYRTAWQNHLT,failed
9,MSIESFNLLLLVMGLVALVVFIALYFVRAGYGMFRSRSWGISVNNKIAWILMEAPVFLVMGWLWWHSDRRFLPVELTFFLFFQLHYFQRAFVFPFLMKGKSKMPVLILLMGVIFNILNGLMQGEWIFYLAPSDYYTPGWLLTPCFWIGTLLFFAGMGINWHSDSVIRHLRAPGDTRHYLPQRGMYRYVTSANYLGEIVEWVGWAILTWSLSGCIFAWWTVANLVPRADAIWHRYREEFGTQVGLKKRIFPFLY,failed
10,MINLWKNGYDMVYGIRNRTTESWLKRVLTQAYYRILNLSSPIDIPESAGDFRLLDAKVVEAIKQLPEKNRYMKGLYAWVGFKSIGINFSEQERQHGHSSFNLKSLFNLAMSGLTGFSDLPLRVCIYLGAILALGAMSYGVWIIIKTLIEGISIPGWATLAAGMTLLGGIQLLFIGILGEYIGRIYAEVKNRPKYIISTEHSRTKQEHSIAHQENTFSSF,failed
11,MTDAPATPYAARTPVHEQHLDGFGTVRVLPLDPAADAAVVHGWVGEERAAFWGMNDLTRDQVAAVYAHMDTLDTHHAFLVVKDGEPAALLQTYDPAADRVSECYAAEPGDIGVHLLLAPAGAEGTRPGWTAALSGALMAYVLLGLDRTRIVVDPDVANEKAIARFLKQGFTAGPAVVLPEVDLPDVYLPEKKAQLAFLRREVAFGA,failed
12,MSTSHPISKIYFSDKKSLQKVDILLEQEGIRRDTNLDYICAMFDDDLNIIATGSCFGNTLRCLSVDHHYQGDGLLNEIVTHLINIQFERGNTHLFLYTKPDTAKFFKDLGFYEIARADKQIVFMENKKDGFSNYLKNLEKPDSECQTTAALVINANPFTLGHQYLVEKAAAENELLHLFMVSDDSSLIPFSVRKQLILAGTEHLSNICYHETGPYIISKSIFPSYFQKDQASVIESQARIDLAIFIQIAKYLGIKGRYVGEEPTSLVTGIYNQIMLQELPKQAIDCIVVPRKTYKDGPISASTVRKALKEGNEQILRELLPSTSLNYFLSPEAQPLIKKIQKADNVIHY,failed
13,MSDLINIQKKLLPDVLMIMQKRYQILRSIYFSEPVGRRTLAGMLGMSERVLRGEVEFLKAQGLVEIASSGMTVTKEGLVVFRDLENVMNQLSGLHSMEEQLAKKLQIKKCLVVQGDSDDTPWVREEMGRVAVEQLDMALTEKRNIVAVMGGSTMATVAEMMTTDFAKGRELLFVPGRGGIGEDLDNQANTICDKMATKTNTKHRVLYVPEQLGEEAYRSLLKEPAIQEGLRLVQSANAIILGIGDALAMAKRRHTGEDVLEKIIRRKAVGEAFGYYFDEQGEVVHKVPTFGLQFEDLAQIPHIIAVAGGTSKAKAIKSYMKSAPKNTILITDEGAAKSLLKGSNTLLK,failed
14,MGHHHHHHSHDPFAHLPKSTFVLDEFKRKYSNEDTLSVALPYFWEHFDKDGWSLWYSEYRFPEELTQTFMSCNLITGMFQRLDKLRKNAFASVILFGTNNSSSISGVWVFRGQELAFPLSPDWQVDYESYTWRKLDPGSEETQTLVREYFSWEGAFQHVGKAFNQGKIFK,not failed
